We go through one molecule from paper PMC10418980, “Synthesis and Evaluation of ^177Lu-DOTA-PD-L1-i and ^225Ac-HEHA-PD-L1-i as Potential Radiopharmaceuticals for Tumor Microenvironment-Targeted Radiotherapy” (International Journal of Molecular Sciences, 2023).

Data set [1] in a line: Stability in labeling medium (water/ascorbic acid/sodium acetate) by radio-HPLC. As to conditions: injectable-grade water/ascorbic acid/sodium acetate; 72 h after labeling (225Ac-HEHA: 72 h after purification); reversed-phase C18 radio-HPLC (225Ac: 1 mL fractions counted in NaI(Tl) detector). The class given is physicochemical. How it is done:
The radiochemical purity of the radioconjugates was determined by reversed-phase HPLC (Waters) with radiometric and UV-vis detectors. The analysis was carried out with a Discovery C18 column (particle size: 5 µm, length: 25 cm, diameter: 4.6 mm). A linear gradient (rate flow: 1 mL/min) of CH3CN-0.1% TFA (B)/H2O-0.1%TFA (A), from 100% to 10% of A in 30 min, was used. For ^225Ac-HEHA-PD-L1-i, fractions of 1.0 mL were collected, and the activity was evaluated in a NaI(Tl) detector (Auto In-v-tron 4010; NML Inc., Houston, TX, USA).
The ^225Ac-HEHA-PD-L1-i and ^177Lu-DOTA-PD-L1-i stability was evaluated in the medium they were obtained after labeling (water/ascorbic acid/sodium acetate) at 0.33, 3, 24, 48, and 72 h with radio-HPLC, as previously described. The conjugate solutions were diluted in human serum (5x) for stability assessment. The conjugates (n = 3) were incubated at 37 °C, and samples were taken at 0.33, 3, 24, 48, and 72 h.

Another data set has as its system HCC827 cells. Kind of data set: Cell viability assay (flow cytometry, Muse Count & Viability Kit). In kind it is cell-based, human. As to conditions: 5 h. How it is done: The effect of ^177Lu DOTA-PD-L1-i, ^225Ac-HEHA-PD-L1-i, and PD-L1-i on HCC827 cell viability (5 × 10^4) was determined by flow cytometry with the Muse® Count & Viability Kit from Luminex, DiaSorin, USA. Before taking readings with the Muse Cell Analyzer (Merck Millipore, Burlington, MA, USA) previously calibrated with the Muse® System Check kit, the baseline detection was established using a fresh sample of untreated cells that served to delimit the size and granularity of the cell line, as well as the basal viability of the population. Also, the reading window for dead cells was established using an aliquot of the same population treated with 0.5% Triton-X100. Once the detection window for the HCC827 cells was established to discriminate between live and dead cells, 50 µL (2 × 10^4 cells/200 µL) were taken from the cell suspension that had been treated with cold ligand (PD-L1-i, 0.1 µg), with 1.4 MBq of ^177Lu DOTA-PD-L1-i or 0.37 kBq of ^225Ac-HEHA-PD-L1-i for 5 h and then mixed with 450 µL of the viability reagent; after 5 min incubation at room temperature and in the dark, the samples were read in triplicate. For the calculation of the radiation absorbed dose to cell nuclei, the total number of nuclear transformations (N) normalized to the unit of administered activity (Bq^.s/Bq) was obtained with the A(t) mathematical integration (from t = 0 to t = 5 h). […]
A general note: A flow cytometer gives signals particle by particle.

In data set [2] the test system is lungs of athymic mice with or without HCC827 lung micrometastases. Kind of data set: Radioisotopic/X-ray imaging. The class given is in vivo. How it is done: Under an approved protocol (No. 07-2018-2021), all animal procedures followed the ethical regulations for handling laboratory animals (NOM-062-ZOO-1999) and the Institutional Animal Care and Use Committee requirements. Male Nu/Nu (UPEAL, […], I.PN., Mexico City, Mexico) mice aged 6–8 weeks were maintained in a pathogen-free barrier facility. Mice were injected with 3.7 MBq (50 µL) of ^177Lu DOTA-PD-L1-I or 3.7 kBq (50 µL) of ^225Ac-HEHA-PD-L1-i in the tail vein and sacrificed at 0.5, 1, 3, 24, 72, and 96 h (n = 3). The heart, lungs, liver, pancreas, spleen, kidneys, small intestine, brain, and stomach were dissected to be measured in a NaI(Tl) radioactivity detector. The results are expressed as the percentage of injected dose (%ID) per organ. Blood samples were also extracted, and the activity was recorded as %ID/g. A second group of mice was inoculated intravenously with 1 × 10^6 HCC827 cells. The animals were treated with 3.7 MBq (50 µL) of ^177Lu DOTA-PD-L1-i (n = 3) or 3.7 kBq (50 µL) of ^225Ac-HEHA-PD-L1-i (n = 3) via tail vein injection on day five post-tumor cell inoculation. The animals were dissected as described above. In the case of ^177Lu DOTA-PD-L1-i, radioisotopic/X-ray in vivo/ex vivo images were obtained in a Preclinical Imaging System (Bruker, XTREME). For in vivo imaging, mice were anesthetized with oxygen and 2% isoflurane.

For data set [3], the system named is kidney and liver tissues from mice. The data set is described as follows: Histopathological assessment (H&E). The class given is in vivo. The note with it: mice exposed to the radiopharmaceuticals. The protocol: Healthy lungs, kidneys, liver, and lungs from mice injected i.v. with HCC827 cells were fixed with 4% paraformaldehyde for 24 h at room temperature, embedded in paraffin, and sectioned in 4–5 µm thick sections using a microtome. Paraffin sections of lung samples were deparaffinized in xylene and rehydrated in a series of graded alcohols. Dewaxed tissue sections were stained with hematoxylin and eosin (H&E). The sections were assessed using a light microscope (magnification of 100x) (Zeiss; Mod. Axioscope: Oberkochen, Germany). Images were acquired with a digital camera (5 MP high-speed color; AmScope; Mod.Mu500: Irvine, CA, USA).

Data set [4] has as its system mice inoculated with HCC827 lung cancer cells. The data set is described as follows: Creatinine and liver enzyme levels. The class given is in vivo. The protocol:
Mouse blood samples collected at 96 h after radiopharmaceutical administration were used for the determination of alanine aminotransferase (ALT), creatinine, and aspartate aminotransferase (AST). Creatinine was measured titrimetrically. The picrate method was used. AST and ALT were quantified using a Roche Diagnostics kit for UV assays.

The mark [5] stands for this setting: ex vivo lungs, radioisotopic imaging.

As for `CCCC[C@H]1C(=O)N(C)[C@@H](CCCC)C(=O)N[C@@H](CCCNC(=S)Nc2ccc(C[C@H]3CN(CC(=O)O)CCN(CC(=O)O)CCN(CC(=O)O)CCN3CC(=O)O)cc2)C(=O)N[C@H](C(=O)NCC(N)=O)CSCC(=O)N[C@@H](Cc2ccc(O)cc2)C(=O)N(C)[C@@H](C)C(=O)N[C@@H](CC(N)=O)C(=O)N2CCC[C@H]2C(=O)N[C@@H](Cc2c[nH]cn2)C(=O)N[C@@H](CC(C)C)C(=O)N2C[C@H](O)C[C@H]2C(=O)N[C@@H](Cc2c[nH]c3ccccc23)C(=O)N[C@@H](CO)C(=O)N[C@@H](Cc2cn(C)c3ccccc23)C(=O)N1C` [^177Lu-DOTA-PD-L1-i, metal not drawn], in data set [1], the “radiochemical purity after 72 h in water” value is listed as “greater than 97.5 ± 0.5%”. Moreover, the “net decrease in alive cells regarding the control group (representative histogram)” value in the data set on HCC827 cells (177Lu 15 Gy, 225Ac 5 Gy) is 30%. In the data set with HCC827 cells (177Lu-DOTA-PD-L1-i 15 Gy (1.4 MBq/20,000 cells), 225Ac-HEHA-PD-L1-i 5 Gy (0.37 kBq/20,000 cells), PD-L1-i 0.1 µg/20,000 cells, read in triplicate), this molecule returned a net decrease viability of 31.42 ± 2.01%. In addition, in data set [2] (setting [5]), the “lung uptake pattern, average number of emitted photons per normalized area, mice in which metastases were not induced” value amounted to 78 ± 32 photons/cm^2 and the “lung uptake pattern, average number of emitted photons per normalized area, mice with metastatic HCC827 cells” value is listed as 298 ± 82 photons/cm^2. For the same molecule, in data set [2] (in vivo and ex vivo, athymic mice with lung micrometastases, 30 min, 24 and 72 h), the “tissue accumulation in radioisotopic images” value is “the only tissue that accumulated the radiotracer was the lung invaded by HCC827 cancer cells”. The “histological staining (H&E) of liver and kidney” value in data set [3] is “no pathologic changes in the liver and kidney”. The Creatinine in data set [4] (96 h after 3.7 MBq 177Lu or 3.7 kBq 225Ac, day 5 after i.v. HCC827 inoculation, mean ± SD, n = 3, control 0.198 ± 0.057) came to 0.199 ± 0.062 mg/dL. For the same molecule, the “Alanine Aminotransferase (ALT)” value in data set [4] (96 h after 3.7 MBq 177Lu or 3.7 kBq 225Ac, day 5 after i.v. HCC827 inoculation, mean ± SD, n = 3, control 71 ± 7) was determined as 68 ± 4 IU/L. In addition, the “Aspartate Aminotransferase (AST)” value in data set [4] (96 h after 3.7 MBq 177Lu or 3.7 kBq 225Ac, day 5 after i.v. HCC827 inoculation, mean ± SD, n = 3, control 150 ± 13) is reported as 143 ± 14 IU/L. Also, the “effect on the function of liver and kidney” value in data set [4] (ALT, creatinine, AST vs control group (Table A1)) is listed as “No significant cytotoxic effect”.
